Test results from US20150344570A1 (published 2015).

T1: FcγRIIb extracellular domain with C-terminal His tag (human, UniProt P31994 43-217)
T1 construct: extracellular domain; Soluble receptor used as analyte in Biacore; also called FcgRIIb; CD32B
T1 sequence (looked up): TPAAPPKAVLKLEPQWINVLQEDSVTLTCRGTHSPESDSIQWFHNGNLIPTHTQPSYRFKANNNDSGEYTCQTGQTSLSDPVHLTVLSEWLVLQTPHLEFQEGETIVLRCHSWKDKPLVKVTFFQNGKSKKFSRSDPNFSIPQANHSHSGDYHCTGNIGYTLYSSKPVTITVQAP

T2: FcγRIIb extracellular domain with C-terminal His tag (human, UniProt P31994 43-217)
T2 construct: extracellular domain; also called FcgRIIb; 2b
T2 sequence (looked up): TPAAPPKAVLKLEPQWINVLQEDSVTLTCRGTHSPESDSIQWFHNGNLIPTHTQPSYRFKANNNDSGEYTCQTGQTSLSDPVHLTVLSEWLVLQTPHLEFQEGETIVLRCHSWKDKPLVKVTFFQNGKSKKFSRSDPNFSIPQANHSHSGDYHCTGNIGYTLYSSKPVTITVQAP

B1: GpH7-A5/GpH7-B3 variant V266_20W/GpL16-k0 (antibody, human IgG1, kappa)
heavy 1: not shown
heavy 2: not shown
light: DIVMTQSPLSLPVTPGEPASISCQASESLVHSNRNTYLHWYLQKPGQSPQLLIYKVSNRFSGVPDRFSGSGSGTDFTLKISRVEAEDVGVYYCSQNTHVPPTFGQGTKVEIERTVAAPSVFIFPPSDEQLKSGTASVVCLLNNFYPREAKVQWKVDNALQSGNSQESVTEQDSKDSTYSLSSTLTLSKADYEKHKVYACEVTHQGLSSPVTKSFNRGEC
notes: Heterodimerized anti-glypican-3 IgG1; mutation in the GpH7-B3 chain only; also called He Ab V266W
B2: GpH7-A5/GpH7-B3 variant D270_20W/GpL16-k0 (antibody, human IgG1, kappa)
heavy 1: not shown
heavy 2: not shown
light: DIVMTQSPLSLPVTPGEPASISCQASESLVHSNRNTYLHWYLQKPGQSPQLLIYKVSNRFSGVPDRFSGSGSGTDFTLKISRVEAEDVGVYYCSQNTHVPPTFGQGTKVEIERTVAAPSVFIFPPSDEQLKSGTASVVCLLNNFYPREAKVQWKVDNALQSGNSQESVTEQDSKDSTYSLSSTLTLSKADYEKHKVYACEVTHQGLSSPVTKSFNRGEC
notes: Heterodimerized anti-glypican-3 IgG1; alteration only in the GpH7-B3 chain, EU numbering; also called He Ab
B3: GpH7-A5/GpH7-B3 variant V266_18N/GpL16-k0 (antibody, human IgG1, kappa)
heavy 1: not shown
heavy 2: not shown
light: DIVMTQSPLSLPVTPGEPASISCQASESLVHSNRNTYLHWYLQKPGQSPQLLIYKVSNRFSGVPDRFSGSGSGTDFTLKISRVEAEDVGVYYCSQNTHVPPTFGQGTKVEIERTVAAPSVFIFPPSDEQLKSGTASVVCLLNNFYPREAKVQWKVDNALQSGNSQESVTEQDSKDSTYSLSSTLTLSKADYEKHKVYACEVTHQGLSSPVTKSFNRGEC
notes: Heterodimerized anti-glypican-3 IgG1; mutation in the GpH7-B3 chain only; also called He Ab V266N
B4: GpH7-A5/GpH7-B3 variant S267_15Y/GpL16-k0 (antibody, human IgG1, kappa)
heavy 1: not shown
heavy 2: not shown
light: DIVMTQSPLSLPVTPGEPASISCQASESLVHSNRNTYLHWYLQKPGQSPQLLIYKVSNRFSGVPDRFSGSGSGTDFTLKISRVEAEDVGVYYCSQNTHVPPTFGQGTKVEIERTVAAPSVFIFPPSDEQLKSGTASVVCLLNNFYPREAKVQWKVDNALQSGNSQESVTEQDSKDSTYSLSSTLTLSKADYEKHKVYACEVTHQGLSSPVTKSFNRGEC
notes: Heterodimerized anti-glypican-3 IgG1; mutation in the GpH7-B3 chain only; also called He Ab S267Y
B5: GpH7-A5/GpH7-B3 variant S267_12R/GpL16-k0 (antibody, human IgG1, kappa)
heavy 1: not shown
heavy 2: not shown
light: DIVMTQSPLSLPVTPGEPASISCQASESLVHSNRNTYLHWYLQKPGQSPQLLIYKVSNRFSGVPDRFSGSGSGTDFTLKISRVEAEDVGVYYCSQNTHVPPTFGQGTKVEIERTVAAPSVFIFPPSDEQLKSGTASVVCLLNNFYPREAKVQWKVDNALQSGNSQESVTEQDSKDSTYSLSSTLTLSKADYEKHKVYACEVTHQGLSSPVTKSFNRGEC
notes: Heterodimerized anti-glypican-3 IgG1; mutation in the GpH7-B3 chain only; also called He Ab S267R
B6: GpH7-A5/GpH7-B3 variant S267_18N/GpL16-k0 (antibody, human IgG1, kappa)
heavy 1: not shown
heavy 2: not shown
light: DIVMTQSPLSLPVTPGEPASISCQASESLVHSNRNTYLHWYLQKPGQSPQLLIYKVSNRFSGVPDRFSGSGSGTDFTLKISRVEAEDVGVYYCSQNTHVPPTFGQGTKVEIERTVAAPSVFIFPPSDEQLKSGTASVVCLLNNFYPREAKVQWKVDNALQSGNSQESVTEQDSKDSTYSLSSTLTLSKADYEKHKVYACEVTHQGLSSPVTKSFNRGEC
notes: Heterodimerized anti-glypican-3 IgG1; mutation in the GpH7-B3 chain only; also called He Ab S267N
B7: GpH7-A5/GpH7-B3 variant S267_16H/GpL16-k0 (antibody, human IgG1, kappa)
heavy 1: not shown
heavy 2: not shown
light: DIVMTQSPLSLPVTPGEPASISCQASESLVHSNRNTYLHWYLQKPGQSPQLLIYKVSNRFSGVPDRFSGSGSGTDFTLKISRVEAEDVGVYYCSQNTHVPPTFGQGTKVEIERTVAAPSVFIFPPSDEQLKSGTASVVCLLNNFYPREAKVQWKVDNALQSGNSQESVTEQDSKDSTYSLSSTLTLSKADYEKHKVYACEVTHQGLSSPVTKSFNRGEC
notes: Heterodimerized anti-glypican-3 IgG1; mutation in the GpH7-B3 chain only; also called He Ab S267H
B8: GpH7-A5/GpH7-B3 variant Q295_03V/GpL16-k0 (antibody, human IgG1, kappa)
heavy 1: not shown
heavy 2: not shown
light: DIVMTQSPLSLPVTPGEPASISCQASESLVHSNRNTYLHWYLQKPGQSPQLLIYKVSNRFSGVPDRFSGSGSGTDFTLKISRVEAEDVGVYYCSQNTHVPPTFGQGTKVEIERTVAAPSVFIFPPSDEQLKSGTASVVCLLNNFYPREAKVQWKVDNALQSGNSQESVTEQDSKDSTYSLSSTLTLSKADYEKHKVYACEVTHQGLSSPVTKSFNRGEC
notes: as for B2

Experiments:
[1] = molecular target: T3, FcγRIa extracellular domain with C-terminal His tag (human, UniProt P12314 16-292); test: SPR Biacore, antibody captured on antigen-peptide chip, FcγR as analyte
T3 construct: extracellular domain; Soluble receptor used as analyte in Biacore; also called FcgRI; FcgRIa
T3 sequence (P12314 16-292): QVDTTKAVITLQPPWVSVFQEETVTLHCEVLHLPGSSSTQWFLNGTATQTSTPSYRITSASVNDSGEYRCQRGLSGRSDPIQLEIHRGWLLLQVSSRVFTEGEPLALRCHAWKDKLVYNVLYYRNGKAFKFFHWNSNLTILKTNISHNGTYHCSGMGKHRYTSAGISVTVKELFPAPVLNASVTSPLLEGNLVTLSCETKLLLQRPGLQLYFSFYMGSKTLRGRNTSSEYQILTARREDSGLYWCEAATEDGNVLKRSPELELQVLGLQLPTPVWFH

[2] = molecular target: T1, FcγRIIb extracellular domain with …; test: as above
[3] = molecular target: T4, FcγRIa extracellular domain with C-terminal His tag (human, UniProt P12314 16-292); test: SPR (Biacore); He/Con_1a divided by He/Con_2b (FcγRIa binding over FcγRIIb binding)
T4 construct: extracellular domain; also called FcgRI; 1a
Method: (§1) The heterodimerized antibodies He Abs in which one of the H chains was introduced with an alteration were assayed for their binding activities to each activating FcγR and inhibitory FcγR according to the method described in Example 4. […] The activating FcγRs in FIGS. 26, 27, 28, and 29 are FcγRIa, FcγRIIa (R), FcγRIIa (H), and FcγRIIIa, respectively.
(§2) Analysis of interaction between objective antibody and the FcγR was carried out using Biacore T100 (GE Healthcare). HBS-EP+ (GE Healthcare) was used as the running buffer, and the measurement temperature was set to 25° C. Chips produced by immobilizing the antigen peptide by the amine coupling method to a Series S Sencor Chip CM5 (GE Healthcare), or alternatively, chips produced by allowing preliminarily biotinylated antigen peptides to interact with and immobilize onto a Series S Sensor Chip SA (certified) (GE Healthcare) were used. Antibodies of interest were captured onto an antigen peptide-immobilized chip, and allowed to interact to each FcγR diluted with running buffer. To regenerate and repeatedly use the chip, the antibodies captured on the chip were washed off by reacting 10 mM glycine-HCl, pH 1.5.
T4 sequence (P12314 16-292): as above

[4] = molecular target: T2, FcγRIIb extracellular domain with …; test: SPR (Biacore), antibody captured via antigen peptide, FcγR as analyte; relative binding
Method: as §1, §2

[5] = molecular target: T4, FcγRIa extracellular domain with …; test: as above
Method: as §1, §2

He/Con_1a [1]	He/Con_2b [2]	He_1a/2b (Ia/IIb) [3]	He/Con_2b [4]	He/Con_1a [5]	Binder
91.4 relative, GpH7-A5/GpH7-B3/GpL16-k0 = 100	71.9 relative, GpH7-A5/GpH7-B3/GpL16-k0 = 100				B1
		1.96 ratio	34.7 % of GpH7-A5/GpH7-B3/GpL16-k0 (=100)	68 % of GpH7-A5/GpH7-B3/GpL16-k0 (=100)	B2
99.5 relative, GpH7-A5/GpH7-B3/GpL16-k0 = 100	69.7 relative, GpH7-A5/GpH7-B3/GpL16-k0 = 100				B3
94.2 relative, GpH7-A5/GpH7-B3/GpL16-k0 = 100	37.9 relative, GpH7-A5/GpH7-B3/GpL16-k0 = 100				B4
92.7 relative, GpH7-A5/GpH7-B3/GpL16-k0 = 100	11.3 relative, GpH7-A5/GpH7-B3/GpL16-k0 = 100				B5
102 relative, GpH7-A5/GpH7-B3/GpL16-k0 = 100	47.7 relative, GpH7-A5/GpH7-B3/GpL16-k0 = 100				B6
100 relative, GpH7-A5/GpH7-B3/GpL16-k0 = 100	65.9 relative, GpH7-A5/GpH7-B3/GpL16-k0 = 100				B7
		1.37 ratio	75.7 % of GpH7-A5/GpH7-B3/GpL16-k0 (=100)	104 % of GpH7-A5/GpH7-B3/GpL16-k0 (=100)	B8
